{"source": "patent US8198236B2", "about": "“Methods and compositions for the treatment of cancer” (Washington University, priority 2007, dated 2012)", "key": {"[1]": {"target": "T1, LRP6 (Homo sapiens, UniProt O75581)", "T1 construct": "expressed in transfected cells; host or cells: human HT1080 cells, retroviral vector pLNCX2", "T1 sequence (O75581 20-1613)": "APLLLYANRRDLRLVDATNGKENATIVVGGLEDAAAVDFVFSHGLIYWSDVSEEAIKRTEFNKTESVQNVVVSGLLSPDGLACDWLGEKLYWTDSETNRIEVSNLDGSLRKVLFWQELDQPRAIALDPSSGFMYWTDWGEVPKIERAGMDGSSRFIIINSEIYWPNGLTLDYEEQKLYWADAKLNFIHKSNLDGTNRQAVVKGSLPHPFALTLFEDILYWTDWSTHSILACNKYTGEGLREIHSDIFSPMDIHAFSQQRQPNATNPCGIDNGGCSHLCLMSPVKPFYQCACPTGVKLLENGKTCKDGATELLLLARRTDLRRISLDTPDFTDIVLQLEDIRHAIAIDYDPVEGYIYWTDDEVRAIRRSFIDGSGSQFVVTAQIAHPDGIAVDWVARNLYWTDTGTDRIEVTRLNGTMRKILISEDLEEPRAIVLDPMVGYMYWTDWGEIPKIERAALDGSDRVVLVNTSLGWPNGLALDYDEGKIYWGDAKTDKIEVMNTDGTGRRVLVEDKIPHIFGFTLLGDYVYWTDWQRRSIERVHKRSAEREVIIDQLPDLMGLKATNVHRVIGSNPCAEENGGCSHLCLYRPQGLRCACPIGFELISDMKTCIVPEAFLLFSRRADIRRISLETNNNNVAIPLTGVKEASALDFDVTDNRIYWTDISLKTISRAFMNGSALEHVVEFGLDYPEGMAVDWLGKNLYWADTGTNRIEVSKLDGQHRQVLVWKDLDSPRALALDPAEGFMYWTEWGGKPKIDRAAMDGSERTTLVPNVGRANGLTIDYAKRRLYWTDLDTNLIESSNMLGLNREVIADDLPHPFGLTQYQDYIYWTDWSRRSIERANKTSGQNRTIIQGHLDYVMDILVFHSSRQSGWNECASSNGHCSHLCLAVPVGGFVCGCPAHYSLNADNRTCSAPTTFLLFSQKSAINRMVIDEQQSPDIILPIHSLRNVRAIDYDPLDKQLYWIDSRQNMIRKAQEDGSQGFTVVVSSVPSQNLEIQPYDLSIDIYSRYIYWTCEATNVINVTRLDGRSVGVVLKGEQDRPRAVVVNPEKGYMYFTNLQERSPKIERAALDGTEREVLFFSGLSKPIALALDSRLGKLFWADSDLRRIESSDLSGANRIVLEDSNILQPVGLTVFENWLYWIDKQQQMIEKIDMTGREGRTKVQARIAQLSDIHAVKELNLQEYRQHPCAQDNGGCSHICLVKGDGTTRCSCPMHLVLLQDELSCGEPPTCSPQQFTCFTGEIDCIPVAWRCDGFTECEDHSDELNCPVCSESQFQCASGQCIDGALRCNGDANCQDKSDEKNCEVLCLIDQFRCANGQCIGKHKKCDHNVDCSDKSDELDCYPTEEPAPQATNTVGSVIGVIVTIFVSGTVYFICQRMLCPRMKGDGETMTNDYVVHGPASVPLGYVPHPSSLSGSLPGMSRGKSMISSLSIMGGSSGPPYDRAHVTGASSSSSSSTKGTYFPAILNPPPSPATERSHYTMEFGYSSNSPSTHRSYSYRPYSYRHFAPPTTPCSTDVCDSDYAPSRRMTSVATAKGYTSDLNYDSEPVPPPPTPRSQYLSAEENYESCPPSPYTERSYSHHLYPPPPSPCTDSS", "test": "125I-DKK1 binding to LRP6", "settings": "500 nM unlabeled, 125I-DKK1 5 nM, 3 hours at 4° C.", "experimental": "Cells (2×10^5) were seeded into 12-well dishes 1 day prior to assay. Ligand-binding buffer (minimal Eagle's medium containing 0.6% BSA with a different concentration of radioligand, 0.6 ml/well) was added to cell monolayers, in the absence or the presence of 500 nM unlabeled RAP or 500 nM unlabeled Mesd, followed with incubation for 0-4 hours at 4° C. Thereafter, overlying buffer containing unbound ligand was removed, and cell monolayers were washed and lysed in low-SDS lysis buffer (62.5 mM Tris-HCl pH 6.8, 0.2% SDS, 10% v/glycerol) and counted.\n(§1) RAP is a receptor antagonist for members of the LDLR family, and is able to inhibit the binding of most known ligands of the LDLR family members. DKK1 is an LRP6-specific ligand and antagonist. […] In these experiments, Serum-free conditioned medium was harvested from HEK293 cells transiently transfected with cDNA for human Myc-DKK1 and allowed to bind to LRP6-transduced HT1080 cells (B,C) and control cells (A) in the absence (A,B) or presence (C) of 1 μM Mesd. Cell-surface-bound Myc-tagged DKK proteins were fixed and detected by immunofluorescence staining with anti-Myc antibody. (D) DKK1 binding to cell surface LRP6 is inhibited by Mesd. Binding of 125I-DKK1 (5 nM) to LRP6-transduced HT1080 cells or the control cells was carried out for 3 hours at 4° C. in the absence (total) or presence of 500 nM RAP or 500 nM Mesd. […]"}, "[2]": {"target": "T1, LRP6", "test": "Cell surface Myc-DKK1 binding and immunodetection on LRP6-transduced HT1080 cells", "settings": "1 μM Mesd, immunofluorescence", "description": "Human DKK1 cDNA (clone MGC:868, IMAGE:3508222) was obtained from Invitrogen and subcloned into pcDNA3 (EcoRI/XbaI). To facilitate immunodetection, a c-Myc epitope was included at the C-terminus. The integrity of the subcloned DNA sequence was confirmed by DNA sequencing. Human DKK1-conditioned media were produced by transient transfection of HEK293 cells with pcDNADKK1-Myc in serum-free medium, and allowed to bind to LRP6-transduced HT1080 cells and control cells at room temperature for 60 minutes in the absence or presence of 1 μM Mesd. Cells were then fixed in 4% paraformaldehyde, labeled with anti-Myc monoclonal antibody and detected with Alexa-488 goat anti-mouse IgG. The immunofluorescence was detected by a laser-scanning confocal microscope (Olympus Fluoview 500).\nas §1, with “antibody.” for “antibody. (D) DKK1 binding to cell surface LRP6 is inhibited by Mesd. Binding of 125I-DKK1 (5 nM) to LRP6-transduced HT1080 cells or the control cells was carried out for 3 hours at 4° C. in the absence (total) or presence of 500 nM RAP or 500 nM Mesd.”"}}}
{"molecule": "Mesd: Recombinant full-length mouse Mesd expressed in E. coli, N-terminal polyhistidine tail, lacking the signal peptide (protein, left off: small tags and cut ends, Recombinant full-length mouse Mesd expressed in E. coli, N-terminal polyhistidine tail, lacking the signal peptide) ADTPGEATPPPRKKKDIRDYNDADMARLLEQWEKDDDIEEGDLPEHKRPSAPIDFSKLDPGKPESILKMTKKGKTLMMFVTVSGNPTEKETEEITSLWQGSLFNANYDVQRFIVGSDRAIFMLRDGSYAWEIKDFLVSQDRCAEVTLEGQMYPGKGGGSKEKNKTKPEKAKKKEGDRKPRASKEDNRAGSRREDL", "values": [{"measurement": "Effect on increased 125I-DKK1 binding of LRP6-expressing HT1080 cells", "setting": "[1]", "result": "abolished"}, {"measurement": "Binding of Myc-DKK1 to LRP6 at the cell surface", "setting": "[2]", "result": "completely blocked"}]}
